The source of these data is article PMC7281310, “Pharmacokinetic Analysis of Epithelial/Endothelial Cell Barriers in Microfluidic Bilayer Devices with an Air–Liquid Interface” (Micromachines, 2020).

Data set [1] can be described thus: Permeability in Transwells without cells. In kind it is in vitro ADME. As to conditions: no cells; 12-well Transwell, polyester membrane, 0.4 µm pores, 1.12 cm^2; static, top to bottom chamber; 2 h; endothelial cell media; C0 = 60, 3, 1, 3 µM for 4-dextran, C-dextran, 70-dextran, insulin; fluorescence plate reader; n = 3. On the procedure:
(§1) Commercially-available 12-well Transwells (Corning, Corning, NY, USA), with polyester membranes, were utilized to assess static compound permeability in the absence of flow-induced shear stress. The area of each Transwell membrane was 1.12 cm^2 with 0.4 µm diameter pores and 0.5% porosity. Epithelial cells were seeded in the Transwell top apical compartment at a density of 2 × 10^6 cells/mL. Once the cell monolayer had reached confluency, the 500 µL culture media in the top compartment was replaced with a solution of endothelial cell media mixed with various fluorescently-labeled compounds at a pre-determined initial concentration. The bottom basolateral compartment was filled with 1500 µL fresh endothelial cell culture media, and the Transwell was placed in an incubator for 2 h. Then, liquid samples of 100 µL from both compartments were aliquoted into a 96-well plate. Fluorescent intensities of the collected samples were measured, using a BioTek Synergy 2 Plate Reader (BioTek, Winooski, VT, USA), and converted to molecular concentrations as reported elsewhere.
(§2) Investigation of molecular transport across Transwell membranes is useful in establishing baseline permeability characteristics with no shear stress. […] The molecular concentration at the Transwell bottom chamber CT was then measured after 2 h. […]

The test system of the next data set is some cell types. As to conditions: 30 min exposure; cited from earlier work.
For another data set, the system named is HUVEC endothelial cells. Nature of the data set: Trypan blue cell viability assay, HUVEC. In kind it is cell-based, human. As to conditions: tested concentration range 10^−3–10^1 µM, 1 h exposure. As to the method: (§3) In general, higher compound concentration is desired since the emitted light intensity increases with molecular concentration enhancing the signal-to-noise ratio and, thereby, improving the reliability of the measured concentration. However, some compounds could be toxic agents to cell cultures; as the signal intensity increases with increasing compound concentration, cells could be adversely affected resulting in cell death. […] Epithelial and endothelial cells were seeded and cultured in 96-well plates for 48 h. The cell cultures were exposed to the selected compounds at various concentrations for 1 h and then washed using PBS. Next, the wells were immersed in 0.2% Trypan Blue for 10 min, after which the cells were fixed using 4% paraformaldehyde and rinsed with PBS. Using a brightfield microscope, dead cells were counted using uptake of trypan blue as a marker for nonviable cells.

Data set [2] has as its system A549 epithelial cells. Put plainly: Trypan blue cell viability assay, A549. The format is cell-based, human. The following applies: insulin at 10 µM, 1 h exposure. On the procedure: as §3
The nature of data set [3]: Permeability of agitated vs un-agitated insulin in Transwells without cells. As to conditions: agitated 5 min in jet nebulizer, 20 min diffusion time, fluorescence. The format is in vitro ADME. On the procedure:
The permeability values, calculated based on concentration measurements in the Transwell bottom compartments after 20 min diffusion time, are shown in Figure 10. […] It is; therefore, critical to maintain the stability of compounds during aerosol generation process in order to obtain reliable concentration–time plots using microfluidic bilayer devices with an air–liquid interface.

Data set [4] has as its system A549 epithelial cells. Put plainly: Permeability in Transwells with A549 cell monolayer. In kind it is in vitro ADME, human. The following applies: confluent A549 monolayer in apical chamber; 12-well Transwell, polyester membrane, 0.4 µm pores, 1.12 cm^2; static, top to bottom chamber; 2 h; endothelial cell media; C0 = 60, 3, 1, 3 µM for 4-dextran, C-dextran, 70-dextran, insulin; fluorescence plate reader; n = 3. On the procedure: as §1, with “elsewhere. […]” for “elsewhere.”
as §2

On the set-up of data set [5]: method as in PMID 21641324, PMID 18646033. The following applies: under conditions similar to the present experiments; cited from earlier work.
The nature of data set [6]: Turbidity / fibril formation after agitation in jet nebulizer (fluorescent intensity, visual pellet). In kind it is physicochemical. On the procedure:
In order to generate an aerosol, using a jet nebulizer, a high-pressure air stream is forced through a liquid solution to form a mixture of tiny liquid droplets suspended in air. […] Visual inspection of the upper jet nebulizer platform provides an indirect evidence for insulin fibril formation. The photographs of the nebulizer platform, shown in Figure 8, were taken following 5 min of the solution agitation.
The intensity of the agitated and un-agitated dextran is approximately the same (Ia/Iu ≅ 1), indicating constant transparency with and without agitation, which is consistent with the lack of a dextran pellet on the nebulizer platform. […] The initially lower intensity of the agitated insulin with its low transparency, which is correlated with the pellet formation on the nebulizer platform, can be due to insulin fibril formation.

“Insulin: Fluorescently tagged (FITC) insulin, 5.8 kDa, used at 3 µM as potential inhaled therapeutic compound”: the figures for the “Permeability in Transwells, Pat” value (in data set [1]; in the data set on A549 epithelial cells [4]) were 15.8 ×10⁻⁶ cm/s and 5 ×10⁻⁶ cm/s, respectively. Moreover, the “Concentration at which some cell types start to exhibit signs of cell death” value with some cell types was “greater than 1 µM”. Moreover, the “Cytotoxicity to HUVEC cells (in words)” value in the data set with HUVEC endothelial cells is “did not have adverse effect”. Besides, the “A549 epithelial cell viability” value in the data set with A549 epithelial cells [2] stood at 88%. The “Permeability of agitated solution compared with un-agitated solution” value in data set [3] was “clearly lower”. Further, the “Time of fibril dissociation” value in data set [5] is given as < 1 h. Further, the “Time to reach steady-state Ia/Iu” value in data set [6] (after 5 min agitation in a jet nebulizer) is listed as ≤ 20 min. The “Pellet (solution turbidity) on nebulizer platform, visual inspection” value in data set [6] (following 5 min of solution agitation) is listed as “visible”. In addition, the “Time for pellet to disappear” value in data set [6] (following 5 min of solution agitation, visual inspection) is recorded as “within half an hour”.
